What was measured:
[1] = biological target: T1, extracellular region of human PD-1 (human, UniProt Q15116 25-170); experiment: method not given
T1 construct: also called extracellular domain of human PD-1

[2] = biological target: T1, extracellular region of human PD-1; experiment: method not given; lower end of the printed range 50-70 nM

T1 sequence (Q15116 25-170 limits assumed): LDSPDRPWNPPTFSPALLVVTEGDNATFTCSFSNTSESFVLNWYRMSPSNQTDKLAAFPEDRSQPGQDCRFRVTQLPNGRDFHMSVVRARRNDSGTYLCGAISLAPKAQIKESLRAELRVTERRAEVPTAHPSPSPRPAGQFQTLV

binding half-life [1]: 15 to 20 s | Kd [2]: 50 to 70 nM
B1: PD-1 agonist VHH (camelid PD-1 agonist VHH) (VHH)
VHH: EVQLVESGGALVQPGGSLRLSCAASGFTFSSYAMTWVRQAPGKGPEWVSAIASDGASTSYLDSVKGRFTVSRDNAKNTLYLQMNSLKPEDTAVYYCARGGYLTYDRYGQGTQVTVSS
notes: also called PD-1 VHH domain; PD-1 VHH antibody
